Substitutions are numbered along the chain they refer to.
What was measured:
GNYTDRRFI test peptide = target: T1, GNYTDRRFI test peptide
T1 chain: GNYTDRRFI

[1] = target: T2, phage isolate 5-B05 display polypeptide
T2 chain: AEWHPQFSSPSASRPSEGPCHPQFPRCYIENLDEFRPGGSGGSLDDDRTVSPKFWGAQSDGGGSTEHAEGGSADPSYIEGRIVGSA

[2] = target: T3, AVLSNVMFI (negative control test peptide)
T3 chain: AVLSNVMFI

[3] = target: T4, GDDDDKIYV (positive control test peptide)
T4 chain: GDDDDKIYV

GDDDDK-β naphthylamine = target: T5, GDDDDK-β naphthylamine
T5 chain: GDDDDK

GNYTDRYFI test peptide = target: T6, GNYTDRYFI test peptide
T6 chain: GNYTDRYFI

GNYTDRMFI test peptide = target: T7, GNYTDRMFI test peptide
T7 chain: GNYTDRMFI

[4] = target: T8, phage isolate 5-H04 display polypeptide
T8 chain: T2 chain with S43D, L44I, D45N, T49S, V50L, S51F, P52S, K53E, F54S, W55S

[5] = target: T9, phage isolate 5-H11 display polypeptide ((Asp)4-Lys-containing recognition sequence)
T9 chain: T2 chain with S43M, L44G, R48D, T49K, V50I, S51Y, P52V, K53Y, F54K, W55T

[6] = target: T10, phage isolate 5-A08 display polypeptide
T10 chain: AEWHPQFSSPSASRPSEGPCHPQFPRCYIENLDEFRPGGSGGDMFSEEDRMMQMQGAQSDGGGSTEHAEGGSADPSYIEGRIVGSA

NKAKDRMFI test peptide = target: T11, NKAKDRMFI test peptide
T11 chain: NKAKDRMFI

DINDDRSLF test peptide = target: T12, DINDDRSLF test peptide
T12 chain: DINDDRSLF

B1: recombinant light chain enterokinase (Novagen, Madison, Wis.) (protein)
chain: IVGGSDSREGAWPWVVALYFDDQQVCGASLVSRDWLVSAAHCVYGRNMEPSKWKAVLGLHMASNLTSPQIETRLIDQIVINPHYNKRRKNNDIAMMHLEMKVNYTDYIQPICLPEENQVFPPGRICSIAGWGALIYQGSTADVLQEADVPLLSNEKCQQQMPEYNITENMVCAGYEAGGVDSCQGDSGGPLMCQENNRWLLAGVTSFGYQCALPNRPGVYARVPRFTEWIQSFLH
Cleavage Rate (GNYTDRRFI test peptide): 0.18 nmol/min | cleavage by 20U recombinant light chain enterokinase, 36-48 hrs, HPLC (GNYTDRRFI test peptide): all digestions were carried to completion (except for the negative control which was not cleaved at all) | rate relative to standard substrate (fold of standard substrate) (GNYTDRRFI test peptide): 0.4 | enterokinase cleavage rate, phage ELISA (release of streptavidin-bound phage at 30 nM or 130 nM enterokinase) [1]: the cleavage rate for ... 5-H11 (SEQ ID NO:194) was slower than for at least three of the other isolates, i.e., 5-A08 (SEQ ID NO:137), 5-B05 (SEQ ID NO:145) and 5-H04 (SEQ ID NO:188) | cleavage by 20U recombinant light chain enterokinase, 36-48 hrs, HPLC [2]: No cleavage occurred with the negative control peptide (SEQ ID NO:198) | cleavage by 20U recombinant light chain enterokinase, 36-48 hrs, HPLC [3]: all digestions were carried to completion (except for the negative control which was not cleaved at all) | rate relative to standard substrate (fold of standard substrate) [3]: 0.7 | ratio (Va/Vb) against reference peptide GDDDDK-βNA, equal to the ratio of kcat/Km [3]: 1 | rate relative to standard substrate (fold of standard substrate) (GDDDDK-β naphthylamine): 1 | Cleavage Rate (GNYTDRYFI test peptide): 0.24 nmol/min | cleavage by 20U recombinant light chain enterokinase, 36-48 hrs, HPLC (GNYTDRYFI test peptide): all digestions were carried to completion (except for the negative control which was not cleaved at all) | rate relative to standard substrate (fold of standard substrate) (GNYTDRYFI test peptide): 0.5 | Cleavage Rate (GNYTDRMFI test peptide): 0.81 nmol/min | cleavage by 20U recombinant light chain enterokinase, 36-48 hrs, HPLC (GNYTDRMFI test peptide): all digestions were carried to completion (except for the negative control which was not cleaved at all) | rate relative to standard substrate (fold of standard substrate) (GNYTDRMFI test peptide): 1.8 | ratio (Va/Vb) against reference peptide GDDDDK-βNA, equal to the ratio of kcat/Km (GNYTDRMFI test peptide): 3.5 | enterokinase cleavage rate, phage ELISA (release of streptavidin-bound phage at 30 nM or 130 nM enterokinase) [4]: isolate 5-H04 (SEQ ID NO:188) shown in Table 5 was the most readily cut | enterokinase cleavage rate, phage ELISA (release of streptavidin-bound phage at 30 nM or 130 nM enterokinase) [5]: the cleavage rate for the (Asp)4-Lys-containing recognition sequence 5-H11 (SEQ ID NO:194) was slower than for at least three of the other isolates | enterokinase cleavage rate, phage ELISA (release of streptavidin-bound phage at 30 nM or 130 nM enterokinase) [6]: the cleavage rate for ... 5-H11 (SEQ ID NO:194) was slower than for at least three of the other isolates, i.e., 5-A08 (SEQ ID NO:137), 5-B05 (SEQ ID NO:145) and 5-H04 (SEQ ID NO:188) | Cleavage Rate (NKAKDRMFI test peptide): 0.26 nmol/min | cleavage by 20U recombinant light chain enterokinase, 36-48 hrs, HPLC (NKAKDRMFI test peptide): all digestions were carried to completion (except for the negative control which was not cleaved at all) | rate relative to standard substrate (fold of standard substrate) (NKAKDRMFI test peptide): 0.6 | Cleavage Rate (DINDDRSLF test peptide): 1.43 nmol/min | cleavage by 20U recombinant light chain enterokinase, 36-48 hrs, HPLC (DINDDRSLF test peptide): all digestions were carried to completion (except for the negative control which was not cleaved at all) | rate relative to standard substrate (fold of standard substrate) (DINDDRSLF test peptide): 3.1 | ratio (Va/Vb) against reference peptide GDDDDK-βNA, equal to the ratio of kcat/Km (DINDDRSLF test peptide): 30

Source: patent US20050158838
